Experimental data: paper PMC5385945 (Molecular Biology of the Cell, 2017)

Biological target: T1, Qc-SNARE Vam7 (wild type, naturally soluble) (S. cerevisiae, UniProt P32912 1-316)
T1 sequence (looked up): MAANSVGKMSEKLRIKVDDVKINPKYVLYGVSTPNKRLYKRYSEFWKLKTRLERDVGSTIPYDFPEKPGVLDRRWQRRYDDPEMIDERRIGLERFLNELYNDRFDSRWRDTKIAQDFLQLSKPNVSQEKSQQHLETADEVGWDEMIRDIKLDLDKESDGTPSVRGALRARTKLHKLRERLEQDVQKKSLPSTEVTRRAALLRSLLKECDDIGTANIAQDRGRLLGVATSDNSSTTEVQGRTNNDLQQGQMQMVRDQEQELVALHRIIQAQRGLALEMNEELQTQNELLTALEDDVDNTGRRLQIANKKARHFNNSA
Experiment: co-flotation with proteoliposomes

B1: Rab GTPase Ypt7, GTP-loaded, bound to proteoliposomes (natural protein, S. cerevisiae, UniProt P32939 1-208, looked up)
chain: MSSRKKNILKVIILGDSGVGKTSLMHRYVNDKYSQQYKATIGADFLTKEVTVDGDKVATMQVWDTAGQERFQSLGVAFYRGADCCVLVYDVTNASSFENIKSWRDEFLVHANVNSPETFPFVILGNKIDAEESKKIVSEKSAQELAKSLGDIPLFLTSAKNAINVDTAFEEIARSALQQNQADTEAFEDDYNDAINIRLDGENNSCSC
- binding result: binds
